# Laboratory results published in patent publication US20140105889A1 (published 2014).
# T1: human FcγRIIa type H (human, UniProt P12318 36-217)
# T1 construct: Whole entry named for FcγRIIa allotype H131 (AAH20823.1); also called FcγRIIaH; FcγRIIa(H)
# T1 sequence: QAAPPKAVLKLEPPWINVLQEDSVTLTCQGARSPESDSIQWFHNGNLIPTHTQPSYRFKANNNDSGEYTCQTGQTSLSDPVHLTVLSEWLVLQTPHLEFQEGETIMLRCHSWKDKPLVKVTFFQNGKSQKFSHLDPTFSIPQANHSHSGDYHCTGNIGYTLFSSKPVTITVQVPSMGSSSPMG
# T2: human FcγRIIa type R (human, UniProt P12318 36-217)
# T2 construct: also called FcγRIIaR; FcγRIIa(R)
# T2 chain: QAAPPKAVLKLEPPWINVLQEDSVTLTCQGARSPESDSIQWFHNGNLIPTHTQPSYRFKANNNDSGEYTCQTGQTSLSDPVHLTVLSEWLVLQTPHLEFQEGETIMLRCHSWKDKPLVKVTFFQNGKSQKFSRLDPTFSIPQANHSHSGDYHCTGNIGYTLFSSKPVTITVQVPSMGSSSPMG
# T3: human FcγRIIb (human, UniProt P31994 43-217)
# T3 construct: also called FcγIIB
# T3 sequence: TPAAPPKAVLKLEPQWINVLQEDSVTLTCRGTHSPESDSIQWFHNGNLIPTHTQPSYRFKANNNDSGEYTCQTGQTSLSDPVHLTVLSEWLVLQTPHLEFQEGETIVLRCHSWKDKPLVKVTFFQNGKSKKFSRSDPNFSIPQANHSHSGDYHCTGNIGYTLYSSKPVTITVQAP
# T4: human FcγRIIb (human, UniProt P31994 43-217)
# T4 construct: also called FcγIIB
# T4 sequence: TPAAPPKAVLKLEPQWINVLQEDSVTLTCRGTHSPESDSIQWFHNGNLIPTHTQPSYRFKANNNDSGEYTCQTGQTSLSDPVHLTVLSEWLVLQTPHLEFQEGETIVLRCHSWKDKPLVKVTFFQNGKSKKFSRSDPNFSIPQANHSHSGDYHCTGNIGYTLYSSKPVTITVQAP
# Legend:
# human FcγRIa = molecular target: T5, human FcγRIa (human, UniProt P12314 16-292, limits assumed); test: SPR (Biacore), FcγR over captured antibody; amount bound relative to IL6R-BF648/IL6R-L x100
# T5 construct: also called CD64
# human FcγRIIa type H = molecular target: T1, human FcγRIIa type H; test: as above
# human FcγRIIIa type V = molecular target: T6, human FcγRIIIa type V (human, UniProt P08637 17-208, limits assumed); test: as above
# T6 construct: also called FcγRIIIaV; FcγRIIIa(V)
# human FcγRIIa type R = molecular target: T2, human FcγRIIa type R; test: as above
# human FcγRIIb [1] = molecular target: T3, human FcγRIIb; test: as above
# human FcγRIIb [2] = molecular target: T4, human FcγRIIb; test: SPR (Biacore); KD of parent IL6R-B3/IL6R-L for FcγRIIb divided by KD of the variant for FcγRIIb
# Source text: Furthermore, KD(IIaR)/KD(IIb) and KD(IIaH)/KD(IIb) in the table respectively represent the value obtained by dividing the KD value of each variant for FcγRIIaR by the KD value of each variant for FcγRIIb, and the value obtained by dividing the KD value of each variant for FcγRIIaH by the KD value of each variant for FcγRIIb.
# T5 sequence (P12314 16-292 limits assumed): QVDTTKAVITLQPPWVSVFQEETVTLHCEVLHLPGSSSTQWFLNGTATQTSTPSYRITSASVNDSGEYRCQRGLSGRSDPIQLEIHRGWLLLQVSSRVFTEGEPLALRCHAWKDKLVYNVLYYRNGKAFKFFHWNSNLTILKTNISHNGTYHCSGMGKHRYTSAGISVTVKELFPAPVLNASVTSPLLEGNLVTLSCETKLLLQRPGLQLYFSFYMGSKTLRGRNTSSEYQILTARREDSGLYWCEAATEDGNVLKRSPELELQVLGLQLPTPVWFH
# T6 sequence (P08637 other isoform, or with tags, fused parts or gaps limits assumed): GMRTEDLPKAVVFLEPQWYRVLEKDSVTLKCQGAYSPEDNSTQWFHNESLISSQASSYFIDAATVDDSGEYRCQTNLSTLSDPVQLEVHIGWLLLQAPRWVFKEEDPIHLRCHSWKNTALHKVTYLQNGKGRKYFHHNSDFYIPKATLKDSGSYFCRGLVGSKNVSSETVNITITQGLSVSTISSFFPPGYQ
relative binding (human FcγRIa),relative binding (human FcγRIIa type H),relative binding (human FcγRIIIa type V),relative binding (human FcγRIIa type R),relative binding (human FcγRIIb [1]),KD(IIb) of the parent polypeptide/KD(IIb) of the altered polypeptide (human FcγRIIb [2]),Binder
–,–,–,–,–,25.5,"IL6R-BP193/IL6R-L (antibody, human IgG1, Anti-human IL-6 receptor human IgG1 variant; copies: 2 + 2) heavy: QVQLQESGPGLVKPSETLSLTCAVSGHSISHDHAWSWVRQPPGEGLEWIGFISYSGITNYNPSLQGRVTISRDNSKNTLYLQMNSLRAEDTAVYYCARSLARTTAMDYWGEGTLVTVSSASTKGPSVFPLAPSSKSTSGGTAALGCLVKDYFPEPVTVSWNSGALTSGVHTFPAVLQSSGLYSLSSVVTVPSSSLGTQTYICNVNHKPSNTKVDKKVEPKSCDKTHTCPPCPAPDLLGGDSVFLFPPKPKDTLMISRTPEVTCVVVDVSDEDGEVKFNWYVDGVEVHNAKTKPREEQYNSTYRVVSVLTVLHQDWLNGKEYKCKVSNKALPKPIEKTISKAKGQPREPQVYTLPPSRDELTKNQVSLTCLVKGFYPSDIAVEWESNGQPENNYKTTPPVLDSDGSFFLYSKLTVDKSRWQQGNVFSCSVMHEALHNHYTQESLSLSP light: DIQMTQSPSSLSASVGDRVTITCRASQDISSYLNWYQQKPGKAPKLLIYYTSRLHSGVPSRFSGSGSGTDFTFTISSLQPEDIATYYCQQGNTLPYTFGQGTKVEIK"
52 relative value (IL6R-BF648/IL6R-L = 100),108 relative value (IL6R-BF648/IL6R-L = 100),–,101 relative value (IL6R-BF648/IL6R-L = 100),119 relative value (IL6R-BF648/IL6R-L = 100),–,"IL6R-BP911/IL6R-L (antibody, human IgG1, copies: 2 + 2) heavy: QVQLQESGPGLVKPSETLSLTCAVSGHSISHDHAWSWVRQPPGEGLEWIGFISYSGITNYNPSLQGRVTISRDNSKNTLYLQMNSLRAEDTAVYYCARSLARTTAMDYWGEGTLVTVSSASTKGPSVFPLAPSSKSTSGGTAALGCLVKDYFPEPVTVSWNSGALTSGVHTFPAVLQSSGLYSLSSVVTVPSSSLGTQTYICNVNHKPSNTKVDKKVEPKSCDKTHTCPPCPAPELLGGDSVFLFPPKPKDTLMISRTPEVTCVVVDVSHEDPEVKFNWYVDGVEVHNAKTKPREEQYNSTYRVVSVLTVLHQDWLNGKEYKCKVSNKALPKPIEKTISKAKGQPREPQVYTLPPSRDELTKNQVSLTCLVKGFYPSDIAVEWESNGQPENNYKTTPPVLDSDGSFFLYSKLTVDKSRWQQGNVFSCSVMHEALHNHYTQESLSLSP light: DIQMTQSPSSLSASVGDRVTITCRASQDISSYLNWYQQKPGKAPKLLIYYTSRLHSGVPSRFSGSGSGTDFTFTISSLQPEDIATYYCQQGNTLPYTFGQGTKVEIK"
–,–,–,–,–,27.3,"IL6R-BP192/IL6R-L (antibody, human IgG1, Anti-human IL-6 receptor human IgG1 variant; copies: 2 + 2) heavy: QVQLQESGPGLVKPSETLSLTCAVSGHSISHDHAWSWVRQPPGEGLEWIGFISYSGITNYNPSLQGRVTISRDNSKNTLYLQMNSLRAEDTAVYYCARSLARTTAMDYWGEGTLVTVSSASTKGPSVFPLAPSSKSTSGGTAALGCLVKDYFPEPVTVSWNSGALTSGVHTFPAVLQSSGLYSLSSVVTVPSSSLGTQTYICNVNHKPSNTKVDKKVEPKSCDKTHTCPPCPAPDLLGGDSVFLFPPKPKDTLMISRTPEVTCVVVDVSDEDGEVKFNWYVDGVEVHNAKTKPREEQDNSTYRVVSVLTVLHQDWLNGKEYKCKVSNKALPKPIEKTISKAKGQPREPQVYTLPPSRDELTKNQVSLTCLVKGFYPSDIAVEWESNGQPENNYKTTPPVLDSDGSFFLYSKLTVDKSRWQQGNVFSCSVMHEALHNHYTQESLSLSP light: DIQMTQSPSSLSASVGDRVTITCRASQDISSYLNWYQQKPGKAPKLLIYYTSRLHSGVPSRFSGSGSGTDFTFTISSLQPEDIATYYCQQGNTLPYTFGQGTKVEIK"

# The remaining lines, values behind:
Binder,relative binding (human FcγRIa),relative binding (human FcγRIIa type H),relative binding (human FcγRIIIa type V),relative binding (human FcγRIIa type R),relative binding (human FcγRIIb [1]),KD(IIb) of the parent polypeptide/KD(IIb) of the altered polypeptide (human FcγRIIb [2])
"IL6R-2B002/IL6R-L (antibody, human IgG1, copies: 2 + 2) heavy: QVQLQESGPGLVKPSETLSLTCAVSGHSISHDHAWSWVRQPPGEGLEWIGFISYSGITNYNPSLQGRVTISRDNSKNTLYLQMNSLRAEDTAVYYCARSLARTTAMDYWGEGTLVTVSSASTKGPSVFPLAPSSKSTSGGTAALGCLVKDYFPEPVTVSWNSGALTSGVHTFPAVLQSSGLYSLSSVVTVPSSSLGTQTYICNVNHKPSNTKVDKKVEPKSCDKTHTCPPCPAPDLLGGDSVFLFPPKPKDTLMISRTPEVTCVVVDVSHEDPEVKFNWYVDGVEVHNAKTKPREEQYNSTYRVVSVLTVLHQDWLNGKEYKCKVSNKALPAPIEKTISKAKGQPREPQVYTLPPSRDELTKNQVSLTCLVKGFYPSDIAVEWESNGQPENNYKTTPPVLDSDGSFFLYSKLTVDKSRWQQGNVFSCSVMHEALHNHYTQESLSLSP light: DIQMTQSPSSLSASVGDRVTITCRASQDISSYLNWYQQKPGKAPKLLIYYTSRLHSGVPSRFSGSGSGTDFTFTISSLQPEDIATYYCQQGNTLPYTFGQGTKVEIK",118 relative value (IL6R-BF648/IL6R-L = 100),147 relative value (IL6R-BF648/IL6R-L = 100),147 relative value (IL6R-BF648/IL6R-L = 100),103 relative value (IL6R-BF648/IL6R-L = 100),–,–
"IL6R-BP126/IL6R-L (antibody, human IgG1, copies: 2 + 2) heavy: QVQLQESGPGLVKPSETLSLTCAVSGHSISHDHAWSWVRQPPGEGLEWIGFISYSGITNYNPSLQGRVTISRDNSKNTLYLQMNSLRAEDTAVYYCARSLARTTAMDYWGEGTLVTVSSASTKGPSVFPLAPSSKSTSGGTAALGCLVKDYFPEPVTVSWNSGALTSGVHTFPAVLQSSGLYSLSSVVTVPSSSLGTQTYICNVNHKPSNTKVDKKVEPKSCDKTHTCPPCPAPELLGGDSVFLFPPKPKDTLMISRTPEVTCVVVDVSHEDPEVKFNWYVDGVEVHNAKTKPREEQYNSTYRVVSVLTVLHQDWLNGKEYKCKVSNLALPAPIEKTISKAKGQPREPQVYTLPPSRDELTKNQVSLTCLVKGFYPSDIAVEWESNGQPENNYKTTPPVLDSDGSFFLYSKLTVDKSRWQQGNVFSCSVMHEALHNHYTQESLSLSP light: DIQMTQSPSSLSASVGDRVTITCRASQDISSYLNWYQQKPGKAPKLLIYYTSRLHSGVPSRFSGSGSGTDFTFTISSLQPEDIATYYCQQGNTLPYTFGQGTKVEIK",113 relative value (IL6R-BF648/IL6R-L = 100),132 relative value (IL6R-BF648/IL6R-L = 100),–,167 relative value (IL6R-BF648/IL6R-L = 100),103 relative value (IL6R-BF648/IL6R-L = 100),–
"IL6R-BP136/IL6R-L (antibody, human IgG1, copies: 2 + 2) heavy: QVQLQESGPGLVKPSETLSLTCAVSGHSISHDHAWSWVRQPPGEGLEWIGFISYSGITNYNPSLQGRVTISRDNSKNTLYLQMNSLRAEDTAVYYCARSLARTTAMDYWGEGTLVTVSSASTKGPSVFPLAPSSKSTSGGTAALGCLVKDYFPEPVTVSWNSGALTSGVHTFPAVLQSSGLYSLSSVVTVPSSSLGTQTYICNVNHKPSNTKVDKKVEPKSCDKTHTCPPCPAPELLGGDSVFLFPPKPKDTLMISRTPEVTCVVVDVSHEDPEVKFNWYVDGVEVHNAKTKPREEQYNSTYRVVSVLTVLHQDWLNGKEYKCKVSNAALPAPIEKTISKAKGQPREPQVYTLPPSRDELTKNQVSLTCLVKGFYPSDIAVEWESNGQPENNYKTTPPVLDSDGSFFLYSKLTVDKSRWQQGNVFSCSVMHEALHNHYTQESLSLSP light: DIQMTQSPSSLSASVGDRVTITCRASQDISSYLNWYQQKPGKAPKLLIYYTSRLHSGVPSRFSGSGSGTDFTFTISSLQPEDIATYYCQQGNTLPYTFGQGTKVEIK",117 relative value (IL6R-BF648/IL6R-L = 100),103 relative value (IL6R-BF648/IL6R-L = 100),–,159 relative value (IL6R-BF648/IL6R-L = 100),119 relative value (IL6R-BF648/IL6R-L = 100),–
"IL6R-BP078/IL6R-L (antibody, human IgG1, copies: 2 + 2) heavy: QVQLQESGPGLVKPSETLSLTCAVSGHSISHDHAWSWVRQPPGEGLEWIGFISYSGITNYNPSLQGRVTISRDNSKNTLYLQMNSLRAEDTAVYYCARSLARTTAMDYWGEGTLVTVSSASTKGPSVFPLAPSSKSTSGGTAALGCLVKDYFPEPVTVSWNSGALTSGVHTFPAVLQSSGLYSLSSVVTVPSSSLGTQTYICNVNHKPSNTKVDKKVEPKSCDKTHTCPPCPAPELLGGDSVFLFPPKPKDTLMISRTPEVTCVVVDVSHEDPEVKFNWYVDGVEVHNAKTKPREEQYNSTYRVVSVLTVLHQDWLNGKEYKCKVSNKALPMPIEKTISKAKGQPREPQVYTLPPSRDELTKNQVSLTCLVKGFYPSDIAVEWESNGQPENNYKTTPPVLDSDGSFFLYSKLTVDKSRWQQGNVFSCSVMHEALHNHYTQESLSLSP light: DIQMTQSPSSLSASVGDRVTITCRASQDISSYLNWYQQKPGKAPKLLIYYTSRLHSGVPSRFSGSGSGTDFTFTISSLQPEDIATYYCQQGNTLPYTFGQGTKVEIK",–,89 relative value (IL6R-BF648/IL6R-L = 100),91 relative value (IL6R-BF648/IL6R-L = 100),101 relative value (IL6R-BF648/IL6R-L = 100),–,–
"IL6R-BP142/IL6R-L (antibody, human IgG1, copies: 2 + 2) heavy: QVQLQESGPGLVKPSETLSLTCAVSGHSISHDHAWSWVRQPPGEGLEWIGFISYSGITNYNPSLQGRVTISRDNSKNTLYLQMNSLRAEDTAVYYCARSLARTTAMDYWGEGTLVTVSSASTKGPSVFPLAPSSKSTSGGTAALGCLVKDYFPEPVTVSWNSGALTSGVHTFPAVLQSSGLYSLSSVVTVPSSSLGTQTYICNVNHKPSNTKVDKKVEPKSCDKTHTCPPCPAPELLGGDSVFLFPPKPKDTLMISRTPEVTCVVVDVSHEDPEVKFNWYVDGVEVHNAKTKPREEQYNSTYRVVSVLTVLHQDWLNGKEYKCKVSNNALPAPIEKTISKAKGQPREPQVYTLPPSRDELTKNQVSLTCLVKGFYPSDIAVEWESNGQPENNYKTTPPVLDSDGSFFLYSKLTVDKSRWQQGNVFSCSVMHEALHNHYTQESLSLSP light: DIQMTQSPSSLSASVGDRVTITCRASQDISSYLNWYQQKPGKAPKLLIYYTSRLHSGVPSRFSGSGSGTDFTFTISSLQPEDIATYYCQQGNTLPYTFGQGTKVEIK",98 relative value (IL6R-BF648/IL6R-L = 100),97 relative value (IL6R-BF648/IL6R-L = 100),–,103 relative value (IL6R-BF648/IL6R-L = 100),106 relative value (IL6R-BF648/IL6R-L = 100),–
